From article PMC8613289

Key:
Experiment in all cases: TurboID proximity biotinylation, streptavidin pull-down, MS-based proteomics
Conditions in all cases: biotin for 1 h; n = 5; read off a plot
RanBP2 = RanBP2 (UniProt P49792)
NDC1 = molecular target: NDC1
NUPL2 = molecular target: NUPL2
AHCTF1 = molecular target: AHCTF1
Nup214 = Nup214 (UniProt P35658)
Nup50 = Nup50 (UniProt Q9UKX7)
RANGAP1 = molecular target: RANGAP1

other: Student's T-test Difference WT NLS1 (RanBP2)	other: Student's T-test Difference WT NLS1 (NDC1)	other: Student's T-test Difference WT NLS1 (NUPL2)	other: Student's T-test Difference WT NLS1 (AHCTF1)	other: Student's T-test Difference WT NLS1 (Nup214)	other: Student's T-test Difference WT NLS1 (Nup50)	other: Student's T-test Difference WT NLS1 (RANGAP1)	other: Student's T-test Difference WT NLS2 (RanBP2)	other: Student's T-test Difference WT NLS2 (AHCTF1)	other: Student's T-test Difference WT NLS2 (Nup214)	other: Student's T-test Difference WT NLS2 (Nup50)	other: Student's T-test Difference WT NLS2 (RANGAP1)	Substance
1.5	-1	-1.6	0.5	2	2.5	1.8						EphA2-V5-TurboID (wild-type EphA2) (from UniProt P29317) NLS1 (RRR>AAA in the juxtamembrane stretch …, as read from Fig. 3a; no residue numbers printed)
							2.1	1.3	2.9	3.1	2.6	EphA2-V5-TurboID (wild-type EphA2) (from UniProt P29317) NLS2 (two K>A in the stretch …, as read from Fig. 3a; no residue numbers printed)
